Data from patent US5985836A, “Alpha-1 proteinase inhibitor binding peptides” (Bayer Corporation, priority 1998, dated 1999).
Ends that are not written are not given here.

Tests used:
A1PI [1] = biological target: T1, A1PI (Homo sapiens, UniProt P01009); assay: A1PI binding on peptide-resin column, injection of 1 mg A1PI in equilibration buffer; conditions: 1 mg A1PI in equilibration buffer
T1 construct: Human plasma is currently the only approved source of therapeutic AlPI
Outline: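 Peptides synthesized on A-Totda-Toyopearl chelate resin (0.1 mmole/g) packed in 0.4×5 cm columns; 1 mg A1PI injected in equilibration buffer at 4 °C or 20 °C, 865 or 523 μl/min. Flowthrough, 1M/3M NaCl washes and 2% acetic acid eluate quantified by A280 or immunonephelometry as percent of total eluted.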

A1PI [2] = biological target: T1, A1PI; assay: A1PI purification from 5 mg hSA + 1 mg A1PI on peptide column, A1PI mass balance; format: binding; conditions: A1PI, 5 mg hSA + 1 mg A1PI; for Mass Protein per Eluate Fraction, 1M NaCl / Mass Protein per Eluate Fraction, 2% Ac. Acid / Mass Protein per Eluate Fraction, Flow: * Below detection limit; for Percent Eluted by Fraction, 1M NaCl / Percent Eluted by Fraction, 2% Ac. Acid / Percent Eluted by Fraction, 3M NaCl / Percent Eluted by Fraction, Flow: relative to total eluted
Outline: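 Peptides on A-Totda-Toyopearl resin (0.1 mmole/g) in 0.4×5 cm columns; 5 mg hSA + 1 mg A1PI loaded at 4 °C or 20 °C with 10 min residence (17 μl/min). Steps of 1M and 3M NaCl, then 2% acetic acid; fractions quantified by immunonephelometry for mass balance.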

A1PI [3] = biological target: T1, A1PI; assay: Purification of A1PI from Effluent II+III on peptide column, A1PI mass balance; format: binding; conditions: A1PI, 1 ml Eff. II+III, 4° C.
Outline: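 Mass balance per protein was determined over the load and each step eluate (1M NaCl, 3M NaCl, 2% acetic acid) of peptide columns challenged with 1 ml Effluent II+III. The feed contained 20% ethanol and 20-25 mg/ml hSA, the flow was 865 μl/min after a 10 min residence, and the temperature was 4° C.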

[4] = biological target: T2, apolipoprotein alpha-1 (Apo A-1) (Homo sapiens, UniProt P02647); assay: Purification from Effluent II+III, Apo A-1 mass balance; format: binding; conditions: 1 ml Eff. II+III, 4° C.
T2 construct: Eff; II+III is a process intermediate in the Cohn plasma fractionation process; tissue Bayer Corporation (Clayton, N.C.); host or cells: plasma fraction: Cohn Effluent II+III
T2 sequence (P02647 19-267): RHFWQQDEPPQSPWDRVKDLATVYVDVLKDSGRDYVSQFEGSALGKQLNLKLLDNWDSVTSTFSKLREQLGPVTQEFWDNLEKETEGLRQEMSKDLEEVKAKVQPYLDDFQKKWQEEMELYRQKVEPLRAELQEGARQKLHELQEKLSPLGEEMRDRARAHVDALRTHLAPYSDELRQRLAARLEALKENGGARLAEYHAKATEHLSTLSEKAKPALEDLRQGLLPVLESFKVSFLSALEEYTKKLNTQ
Procedure: (§1) Sequences 1-11 and 15 were assayed with Effluent II+III (Eff. II+III). Eff. II+III is a process intermediate in the Cohn plasma fractionation process. The feed stream contains 20% (by volume) ethanol, 20-25 mg/ml hSA and approximately 1 mg/ml AlPI. The stream also contains other proteins including anti-thrombin III (AT3), immunoglobin G (IgG), immunoglobin A (IgA), apolipoprotein alpha-1 (Apo A-1), transferrin (Trf), haptoglobin (Hpt), and alpha-1 acid glycoprotein (AAG) at concentrations ranging from 0.1-1 mg/ml.
(§2) The columns were assayed using the same technique as the hSA+AlPI experiments, allowing for a 10 minute residence time followed by a constant flow rate of 865 μl/min with step elutions of 1M NaCl, 3M NaCl, and 2% acetic acid. All experiments were conducted at 4° C. The mass balances for the injection of 1 ml Eff. […] The AlPI was enriched from 3% of the total protein in the feed to upwards of 50% in the acid eluate.

Immunoglobulin A (IgA) = assay: Purification from Effluent II+III, IgA mass balance; format: binding, human; conditions: 1 ml Eff. II+III, 4° C.
Procedure: as §1, §2

Immunoglobulin G (IgG) = assay: Purification from Effluent II+III, IgG mass balance; format: binding, human; conditions: 1 ml Eff. II+III, 4° C.
Procedure: as §1, §2

A1PI [5] = biological target: T1, A1PI; assay: A1PI yield from dialyzed (aqueous) Effluent II+III; format: binding; conditions: 4° C.
Procedure: Effluent II+III was dialyzed against equilibration buffer at 4° C. to remove the ethanol using a 15,000 molecular weight cut-off membrane. Nephelometry of the Eff. […] A portion of the identified sequences were assayed under the same conditions applied for neat Eff. II+III at 4° C. […] II+III compared to the neat, ethanol-containing feed. The binding strength differed for the aqueous feed as more AlPI eluted in 1M NaCl for the aqueous feed. The AlPI eluted in the 1M NaCl fractions was not as enriched as that eluted in the acid eluates.

[6] = * as in Tables 4, 5 (below detection limit)
[7] = 1 ml dialyzed Eff. II+III (ethanol removed)
[8] = A1PI, 1 ml dialyzed Eff. II+III

T1 sequence (P01009 25-418): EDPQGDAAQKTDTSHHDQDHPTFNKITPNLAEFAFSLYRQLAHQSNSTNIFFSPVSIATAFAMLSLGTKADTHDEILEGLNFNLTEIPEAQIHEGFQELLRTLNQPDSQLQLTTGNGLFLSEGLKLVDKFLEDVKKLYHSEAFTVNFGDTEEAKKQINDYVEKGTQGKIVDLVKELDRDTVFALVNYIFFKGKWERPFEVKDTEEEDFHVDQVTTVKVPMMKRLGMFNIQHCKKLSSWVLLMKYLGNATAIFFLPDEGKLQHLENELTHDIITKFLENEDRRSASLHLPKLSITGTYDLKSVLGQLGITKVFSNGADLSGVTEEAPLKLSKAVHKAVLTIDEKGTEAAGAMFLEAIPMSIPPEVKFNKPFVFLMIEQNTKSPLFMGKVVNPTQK

Substance: IIWLYK
- Percent A1PI Eluted by Fraction Based on Absorbance at 280 nm, 1M NaCl (A1PI [1]; 4° C.): 52%
- Percent A1PI Eluted by Fraction Based on Absorbance at 280 nm, 2% Acetic Acid (A1PI [1]; 4° C.): 48%
- Percent A1PI Eluted by Fraction Based on Absorbance at 280 nm, Flowthrough (A1PI [1]; 4° C.): 0%
- Percent A1PI Eluted by Fraction, 1M NaCl (A1PI [1]; 20° C.): 17%
- Percent A1PI Eluted by Fraction, 2% Acetic Acid (A1PI [1]; 20° C.): 55%
- Percent A1PI Eluted by Fraction, Flowthrough (A1PI [1]; 20° C.): 28%
- Mass Protein per Eluate Fraction, 1M NaCl (A1PI [2]; 4° C.): 0.10 mg
- Mass Protein per Eluate Fraction, 2% Ac. Acid (A1PI [2]; 4° C.): 0.18 mg
- Mass Protein per Eluate Fraction, Flow (A1PI [2]; 4° C.): 0.52 mg
- Percent Eluted by Fraction, 1M NaCl (A1PI [2]; 4° C.): 13%
- Percent Eluted by Fraction, 2% Ac. Acid (A1PI [2]; 4° C.): 23%
- Percent Eluted by Fraction, 3M NaCl (A1PI [2]; 4° C.): 0%
- Percent Eluted by Fraction, Flow (A1PI [2]; 4° C.): 65%
- Mass Protein per Eluate Fraction, 1M NaCl (A1PI [2]; 20° C.): 0.07 mg
- Mass Protein per Eluate Fraction, 2% Ac. Acid (A1PI [2]; 20° C.): 0.47 mg
- Mass Protein per Eluate Fraction, Flow (A1PI [2]; 20° C.): 0.26 mg
- Percent Eluted by Fraction, 1M NaCl (A1PI [2]; 20° C.): 9%
- Percent Eluted by Fraction, 2% Ac. Acid (A1PI [2]; 20° C.): 58%
- Percent Eluted by Fraction, 3M NaCl (A1PI [2]; 20° C.): 0%
- Percent Eluted by Fraction, Flow (A1PI [2]; 20° C.): 33%
- Percent Eluted by Fraction, 1M NaCl (A1PI [3]): 0%
- Percent Eluted by Fraction, 2% Acetic Acid (A1PI [3]): 79%
- Percent Eluted by Fraction, 3M NaCl (A1PI [3]): 0%
- Percent Eluted by Fraction, Flow (A1PI [3]): 21%
- Mass Protein per Eluate Fraction, 2% Acetic Acid (A1PI [3]; [6]): 0.50 mg
- Mass Protein per Eluate Fraction, Flow (A1PI [3]; [6]): 0.13 mg
- Percent Eluted by Fraction, 1M NaCl [4]: 0%
- Percent Eluted by Fraction, 2% Acetic Acid [4]: 100%
- Percent Eluted by Fraction, 3M NaCl [4]: 0%
- Percent Eluted by Fraction, Flow [4]: 0%
- Mass Protein per Eluate Fraction, 2% Acetic Acid [4, 6]: 0.43 mg
- Percent Eluted by Fraction, 1M NaCl (Immunoglobulin A (IgA)): 34%
- Percent Eluted by Fraction, 2% Acetic Acid (Immunoglobulin A (IgA)): 49%
- Percent Eluted by Fraction, 3M NaCl (Immunoglobulin A (IgA)): 0%
- Percent Eluted by Fraction, Flow (Immunoglobulin A (IgA)): 17%
- Mass Protein per Eluate Fraction, 1M NaCl (Immunoglobulin A (IgA); [6]): 0.12 mg
- Mass Protein per Eluate Fraction, 2% Acetic Acid (Immunoglobulin A (IgA); [6]): 0.17 mg
- Mass Protein per Eluate Fraction, Flow (Immunoglobulin A (IgA); [6]): 0.06 mg
- Percent Eluted by Fraction, 1M NaCl (Immunoglobulin G (IgG)): 9%
- Percent Eluted by Fraction, 2% Acetic Acid (Immunoglobulin G (IgG)): 0%
- Percent Eluted by Fraction, 3M NaCl (Immunoglobulin G (IgG)): 0%
- Percent Eluted by Fraction, Flow (Immunoglobulin G (IgG)): 91%
- Mass Protein per Eluate Fraction, 1M NaCl (Immunoglobulin G (IgG); [6]): 0.02 mg
- Mass Protein per Eluate Fraction, Flow (Immunoglobulin G (IgG); [6]): 0.23 mg
- Mass A1PI per Eluate Fraction, 1M NaCl (A1PI [5]; [7]): 0.05 mg
- Mass A1PI per Eluate Fraction, 2% Acetic Acid (A1PI [5]; [7]): 0.38 mg
- Mass A1PI per Eluate Fraction, Flowthrough (A1PI [5]; [7]): 0.19 mg
- Percent Eluted by Fraction, 1M NaCl (A1PI [5]; [8]): 9%
- Percent Eluted by Fraction, 2% Acetic Acid (A1PI [5]; [8]): 60%
- Percent Eluted by Fraction, Flowthrough (A1PI [5]; [8]): 31%
